Target: S-RBD-Rhizavidin fusion protein (SARS-CoV-2 | not stated) (UniProt P0DTC2)
Assay: SEC-MALS; HPLC-SEC on AdvanceBio SEC 1.9 μm column, 0.4 mL/min, 20 mM HEPES, 100 mM sodium chloride, 25 °C; about 20 micrograms injected; MALS with first order Zimm fit

S-RBD-Rhizavidin fusion protein (from UniProt P0DTC2 331-524)
stoichiometry N: 2

— PMC9317729
